Experiment: In vitro liposome fractionation assay
Type: binding
Conditions: 5 μg protein, 15 minute incubation, centrifugation, SDS-PAGE
Description: FIG. 51. Recombinant tTG can associate with lipid vesicles lacking any protein content. Synthetic liposomes were prepared by extrusion and then equal amounts of this preparation were combined with either 5 μg recombinant tTG (tTG WT) or 5 μg bovine serum albumin (BSA). After a 15 minute incubation, the liposomes were pelleted by centrifugation, and the resulting supernatant (Sup) and liposome (Pellet) fractions were resolved by SDS-PAGE. The gel was then stained with Quick Blue to detect the proteins. A lane containing recombinant tTG (Rec. tTG WT) was included as a standard.
To obtain the results depicted in FIG. 51, the following procedures were used. In vitro liposome fractionation assays—Synthetic liposomes were prepared from a lipid mixture containing 35% phosphatidylethanolamine, 25% phosphatidylserine, 5% phosphatidylinositol, and 35% cholesterol re-suspended in TBSM buffer (20 mM Tris, pH 7.5, 150 mM NaCl, and 2 mM MgCl2). The lipids were extruded through an 8 micron filter, pelleted by centrifugation at 13,000 rpm for 15 minutes, and re-suspended in TBSM buffer. Equal amounts of the lipid preparation were then incubated with either recombinant wild-type tTG or BSA for 15 minutes, followed by centrifugation at 13,000 rpm for 10 minutes at room temperature. […]

B1: tTG WT: purified recombinant wild-type tissue transglutaminase (protein, UniProt P21980 2-687, looked up)
Protein-glutamine …: AEELVLERCDLELETNGRDHHTADLCREKLVVRRGQPFWLTLHFEGRNYEASVDSLTFSVVTGPAPSQEAGTKARFPLRDAVEEGDWTATVVDQQDCTLSLQLTTPANAPIGLYRLSLEASTGYQGSSFVLGHFILLFNAWCPADAVYLDSEEERQEYVLTQQGFIYQGSAKFIKNIPWNFGQFEDGILDICLILLDVNPKFLKNAGRDCSRRSSPVYVGRVVSGMVNCNDDQGVLLGRWDNNYGDGVSPMSWIGSVDILRRWKNHGCQRVKYGQCWVFAAVACTVLRCLGIPTRVVTNYNSAHDQNSNLLIEYFRNEFGEIQGDKSEMIWNFHCWVESWMTRPDLQPGYEGWQALDPTPQEKSEGTYCCGPVPVRAIKEGDLSTKYDAPFVFAEVNADVVDWIQQDDGSVHKSINRSLIVGLKISTKSVGRDEREDITHTYKYPEGSSEEREAFTRANHLNKLAEKEETGMAMRIRVGQSMNMGSDFDVFAHITNNTAEEYVCRLLLCARTVSYNGILGPECGTKYLLNLNLEPFSEKSVPLCILYEKYRDCLTESNLIKVRALLVEPVINSYLLAERDLYLENPEIKIRILGEPKQKRKLVAEVSLQNPLPVALEGCTFTVEGAGLTEEQKTVEIPDPVEAGEEVKVRMDLLPLHMGLHKLVVNFESDKLKAVKGFRNVIIGPA
In the case of B1, the “protein pelleted with synthetic liposomes” value is reported as “nearly all”.
